A short description of the data set: soluble fraction after stress (log2 fold change); higher = more stays soluble; pooled small domains, quantitative proteomics. As to conditions: stress: 50 degC. In outline:
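The stress applied to every library was 50°C. These custom libraries of small protein domains were pooled and measured at high throughput with quantitative proteomics as the read-out. Aggregation propensity is expressed as the base-two logarithm of the fold change in how much of each protein remains soluble. The higher the value, the more of that protein stays in solution.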
Consider “HMSGYFSDKKLNELFEQYLIMREKKGKPVVGYQLKILIDRLNQVAANTKEKIEVVSNAIAGDWNTFYPIKR”, for which the “soluble fraction (log2)” value was -0.621. Under “HMSHDTLVYRLAQMLVKLNQGEKLDPQQLAEEFGVNLRTIQRDLNVRFAYLQLEKTDGRYHLDPTFL” stands -0.999.

As to “HMSHLTKKQEEVLLFIRDYYEEEGRSPSYSDIQHHFGLKSKSSVQDYIGYLKKAGFLQKSVGSRAIELV”, the “soluble fraction (log2)” value was -2.05. Under “HMSHQIIIVAVELDPSTERIVYYLSKNGISINVLFFKVFQHGDEQFLSRVWLIDPSETQTNAALA” stands -0.466; under “HMSIESMVGRFGVVTKDVVANEMAGKVKVGREEFRATADIAVSSGTKVKVTHAEGITLTVVPE”, 0.378; under “HMSIGKEATPDDIVPNIRVYHATFGYGNVIKTDGVSHDKKAVVNFDSVGEKTLLLKFAKLILPY”, 0.138. The result for “HMSIGLEGFVGKLGISTSDLRPSGWGEFDAKKLFVVTEGEFVDRKEKIEILSVDGNRILVRKIS” reads -0.751; that for “HMSILPGVYRHYKGNHYQVFYLAKHSETLEDMVVYQALYGERGIWVRPASMWNETVDDQGKQVKRFTYI”, -0.24; that for “HMSILYNAVKGTLVSSGALTADSWYKISSFGTASALPALKVGSIFKTPEGAGDAITLASGDSVYPLTLT”, -1.26.

For the sequence “HMSINQTIEGKKQGYWIIYGNMRNLQEYLSNEVIEEGQFKNSRKEGVWRKYFPGGQMKSEITYINGRP”, the “soluble fraction (log2)” value is -0.309. Take “HMSINTIIAKNLNRLRNERNLSLGQLAELSGVSKVMLSQIEKGDSNPTVNTIWKIASGLNVPYTAILDQP”: the “soluble fraction (log2)” value is -0.0848. Under “HMSIPVLKDGTYESWGNEKVYKVGDRVMVGSNGYVAKWWNQDETPEKAIINPNDSPWRPMTESEIMEVLK” stands -0.0154; under “HMSISEADAKKIALEKVPGATDSNLRIKTDYDDGIMKYEVKIVYNEMKYEFDIDAATGTILEWESESVY”, -0.659; under “HMSISSSEAARSAVASSGGTVLGVSKASHGGYKAWAVRIQRADGSVVTGYVDRASGTVYDWVVNQAA”, -0.3. Under “HMSKEDDSLVVTFRRMLLEEVDLHELSRIDANQRRARLERVIAHLVSREGVILSASERNQLVRRVVDEAV” stands -0.529. The result for “HMSKEEAIQAMKEGKKVTHRFFSSDEWMTIENGFLLLEDGVRISLEDFFNFRSDSLWDNGYELYNPH” reads -0.162. For the sequence “HMSKFSDTLVYLRKRAGFSQQELADKMEVSRSLVGMYESGQRMPSYEMLEALADIFNVNIDFLTGH”, the “soluble fraction (log2)” value was -0.418. Under “HMSKIRSEINKFSSDADKPILEWLFERYHWASQWRFVARFSEQRYGVLSYEINRVWEPTIEGRALYDQL” stands -2.34; under “HMSKKMLASIFDTISGIGKKRLKKIWDNYTSLNELKDDSLENIYAKTQIPINLITKIKEKLE”, -0.37. Consider “HMSKKMTNEEILNFLKKVLIKHGKISGFIIDEDDNGPSSSVVASRFGGLLNAYKLINYTPER”, for which the “soluble fraction (log2)” value was -0.506. Consider “HMSKMTLGENLRLLRREKGLSQEQVAQTLFVARQTISKWENGQAEPGVESLKALAKLYGVSLDRLVGA”, for which the “soluble fraction (log2)” value was -0.0483. The result for “HMSKPLEVFKLTSEPFGFSFNTALGRSYTVEATGDLGVWKAVELFQGSGGEIRFTAKPTSSGGAQFFRVFV” reads -0.0927. “HMSKPVYILINKPKGFLASSTDKKVKKSVNDLINISNLNKIYPFDNMGRTSSGLLLLSNDLYFKKHFKDKI”: the “soluble fraction (log2)” value came out at 0.341. Consider “HMSKQKRIKYFLSILNIKSIKQFRKKDLDYFYQKRFIEIQKSSKDKKLVSNQLIELNAAKEYLDEIDFEN”, for which the “soluble fraction (log2)” value was -1.93. Under “HMSKQQVRSILDDIPNIGETRRKALMRQFQSLEKIREASVGQLREVDGMNEKAAQSVYQFFHK” stands -0.0486. Under “HMSKQVDVVIYILENTKAADNTYIGTYRKTADGAGVSLDTATKVMRKLQENNFIKKVQNGVYQISPLIMM” stands -0.889. The result for “HMSKRDDLLDQASEWLAKLDRDLTVVEERELKAWLGESAAHRETFIQMAKLWDKMESLSRLTDL” reads -0.397. Consider “HMSKSVEQRRQQIVAWVKEHGQSQVEDLAVRFATSEVTIRKDLAALSQQGLLIRQFGGAVPVPA”, for which the “soluble fraction (log2)” value was -0.661. Under “HMSKTQYTFKEVGSQFQLFAPSTKHTIMISADHPKYGWLTNQDQGRVINVYDTGKMTSSQDYYGLYKEVT” stands -0.155; under “HMSKTQYTFREVGSQFELHAPSTNHKIMVDANHPKYGWLSSQEAGRVINVYESGKMTSSQDYYGLYKQS”, -0.0727. Consider “HMSLANTSVKEMLNDLVKNEEPSKPLSDEALVKIFKEKGVKIARRTVAKYRAELNILPSHLRRT”, for which the “soluble fraction (log2)” value is -0.749. With “HMSLAVFLQGLLEEKQLKKADVIRRTGMEPTYGYHIFDGHKKHPARSKVLLLALAMGLTVKEAQHLLYYAG”, the “soluble fraction (log2)” value was -0.116. Under “HMSLDAAAVASKLIKRLSKSPGRRFALDDLAVDVGLPHEQGRPLVRSALELLVRTQQAVEGPPNVFRLFF” stands -1.57; under “HMSLEDMILSLSSRIRRGESLHFRELLVAIETKSGMVTIFMAVLELLKQQVMEMRYEDDDIIFT”, -0.912; under “HMSLEEIPLEERLGPGGLDPVAVYDSLPREMRDAFDSGSVSALREFVNALPAEDAARHMKAMVDSGLWVPT”, 0.0547. The result for “HMSLETRRYQLPRTDAQTASGLLRSLSGLPGVREVNLSGEGVAYLKVDSKGFDEQNVIKLLAGE” reads 0.307. Take “HMSLHSITIPQEFIGAVIGPGGKVIQEIQKQTGTTITITEKDNKGYVDIFGEDKGALDSALARIKEIVAIP”: the “soluble fraction (log2)” value turned out to be 0.182.

For “HMSLIDYLNELMNEKNITVAQVAKNSGIGEYVYKIFNGERNAKRDTLVAISFGMHLNFEETQLLLRIA”, the “soluble fraction (log2)” value was -0.682. Under “HMSLPALALRQADSLAFKQVIYHDRVVPFNTLARDFVLKLTGKPSYGGMTPEQVVGGWLLRPEVWQNEPM” stands -0.0387; under “HMSLPAYIKISEVIARRINAGQILAGDRLPNERTMAVEFGVAVGTLRKALYHLQVRGLVTRKHGSGNYINK”, -0.177; under “HMSLPKIVVPTDVTVSQLAKYLEVDAISIIKQLFGMGVVASLNQRLEDEIIQLIGNEFGKEIIFSE”, -0.054.

For the sequence “HMSLPQSKDAVITILRTLPQLDTRAPEVYKLLGPHALDIILEDPEQVAKKINHVGVATAKLWQQALLGFK”, the “soluble fraction (log2)” value was -0.2.

Regarding “HMSLQDYYQVLGVFYNAGDKEIKRRWKELINQYHPDLAQAKGASPEEIENYTLKMAEINNAYEQIMKSRKA”, the “soluble fraction (log2)” value amounted to 0.0274. For “HMSLSASELDQLRMMTKVSHMYHTRGMVQIDIARSLGLSQARVSRLLSAAEDANIVRTVVVA”, the “soluble fraction (log2)” value was -0.306. The result for “HMSLTAQVFTDRGKVLLSENKFTEAIDQFTKALAMDKVYIEALNRRIEAYQHLGLTELAAKDEALLGTL” reads -0.755. In the case of “HMSLTPSQDANRSAILDAARDLFARYGFKKTTMEDIAMALRKGKSSLYYYFKNKEDIFQAVIDS”, the “soluble fraction (log2)” value was -1.35. For the sequence “HMSMDAVSLANRLLRFFQKRPGRKFTAADLAFETGMNERTGKSLVTSALEILSRTNQIEADGDGFRLKM”, the “soluble fraction (log2)” value stood at 0.138. Under “HMSMEIQEIIRQLREKNDWSQEDMAERVGLSKNGYAKIERGETNLNLERLEQIANLFDLSVIDLIEMS” stands -0.796. Under “HMSMEKNWVPSEDVIEILTRAGMNENFIRELIPEFIIYWSERKDVLISYDSKFIEHARLKWAQHNAE” stands 0.176. Under “HMSMFTPAQVAQTLTVPPSTLRRWAKRFAPFLSPQSGKKRTYTVADLDTFQRIKELSAQGYTFAQIDQAL” stands -0.738.

The record behind these values is the domain aggregation screens of Martell et al. (2025).
